Measured values taken from patent publication US20120230939A1 (BOARD OF TRUSTEES OF THE UNIVERSITY OF ILLINOIS, published 2012).

B1: PSA 210-230 peptide (peptide)
peptide: CALPERPSLYTKVVHYRKWIK
notes: Synthetic peptide, >95% purity, bought from Research Genetics Inc; also called 21-mer PSA 210-230 peptide

Tests used:
HLA-A0201 [1] = target: T1, HLA-A0201 (human); experiment: cell-based or functional assay
T1 construct: whole, on cells; also called HLA-A201; HLA-A2

HLA-A0201 [2] = target: T1, HLA-A0201; experiment: T2 binding assay: HLA-A2 expression on T2 cells, flow cytometry
Description: Briefly, T2 cells (5×10⁵/well) were pulsed with PSA-peptide or DMSO at the designated concentration and cultured in 24-well plates overnight (18 hours) at 37° C. in 5% CO₂ atmosphere.

HLA-A0201 [3] = target: T1, HLA-A0201; experiment: T2 binding assay: stabilisation of HLA-A2 on T2 cells, flow cytometry
Excerpt: HLA-A2 expression was visualized by direct staining with FITC conjugated MA2.1 antibody or an isotype control (BD Biosciences, San Diego, Calif.) followed by analysis on a FC500 flow cytometer (Beckman Coulter, Miami, Fla.).

Row | Molecule | binding result (HLA-A0201 [3]) | also measured
1 | anti-HLA-A2 monoclonal antibody (BB7.2) |  | fold decrease in cytolytic activity of CD8+ CTL induced with TEM8 298-306 against HepG2 targets (12-hour chromium release assay) (HLA-A0201 [1]): 2 fold
2 | B1 |  | binding result (HLA-A0201 [2]): binds
3 | ALQGIIHSI (Synthetic peptide, >95% purity) [TEM8 207-215 peptide] | binds | 
4 | SMNDGLSFI (Synthetic peptide, >95% purity) [TEM8 298-306 peptide] | binds | 
5 | TLNEKPFSV (Synthetic peptide, >95% purity) [TEM8 266-274 peptide] | no binding (tested: 1 to 80 ug/ml) | 
